Data from EP2500357A2 (Abbott Laboratories, dated 2012).
Like-named read-outs stand apart in the source and are kept apart here.

Legend:
Experiment in all cases: cell-based or functional assay
[1] = target: T1, recombinant human IL-1β (human, UniProt P01584 117-269)
[2] = target: T2, recombinant human IL-1α (human, UniProt P01583 113-271)
T2 sequence (looked up): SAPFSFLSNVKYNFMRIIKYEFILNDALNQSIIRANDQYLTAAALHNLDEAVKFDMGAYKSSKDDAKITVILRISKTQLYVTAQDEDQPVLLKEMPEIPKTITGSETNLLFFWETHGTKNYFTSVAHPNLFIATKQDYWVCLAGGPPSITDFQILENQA

[3] = target: T2, recombinant human IL-1α; remark: listed apart in the source
[4] = target: T1, recombinant human IL-1β; remark: listed apart in the source
[5] = target: T2, recombinant human IL-1α; remark: listed apart in the source
[6] = target: T1, recombinant human IL-1β; remark: listed apart in the source
[7] = target: T2, recombinant human IL-1α; remark: listed apart in the source
[8] = target: T1, recombinant human IL-1β; remark: listed apart in the source

B1: hIL-1a/bDVD5a-Ig (bispecific antibody, human IgG1, kappa)
heavy: not shown
light: QIVLTQSPALMSASPGEKVTMTCSASSSVNYMYWYQQKPRSSPKPWIYLTSNLASGVPARFSGSGSGTSYSLTISSMEAEDAATYYCQQWNSNPYTFGGGTKLEMKRTVAAPQIVLTQSPAIMSASPGEKVTITCSASSSVSYMHWFQQKPGASPKLWIYSTSNLASGVPARFSGSGSGTSYSLTVSRMEAEDAATYYCQQRSTYPYTFGGGTKLEIKRTVAAPSVFIFPPSDEQLKSGTASVVCLLNNFYPREAKVQWKVDNALQSGNSQESVTEQDSKDSTYSLSSTLTLSKADYEKHKVYACEVTHQGLSSPVTKSFNRGEC
Potency (IC50), MRC-5 bioassay [1]: 19000 pM
Potency (IC50), MRC-5 bioassay [2]: 2600 pM

B2: hIL-1a/bDVD4b-Ig (bispecific antibody, human IgG1, kappa)
heavy: not shown
light: ETTVTQSPASLSMAIGEKVTIRCITSTDIDVDMNWYQQKPGEPPKLLISQGNTLRPGVPSRFSSSGSGTDFVFIIENMLSEDVADYYCLQSDNLPLTFGAGTKLELKRTVAAPSVFIFPPDIVMTQSQRFMSTSVGDRVSVTCKASQNVGTNIAWYQQKPGQSPRALIYSASYRYSGVPDRFTGSGSGTDFTLTISNVQSVDLAEYFCQQYTRYPLTFGGGTKLEIKRTVAAPSVFIFPPSDEQLKSGTASVVCLLNNFYPREAKVQWKVDNALQSGNSQESVTEQDSKDSTYSLSSTLTLSKADYEKHKVYACEVTHQGLSSPVTKSFNRGEC
Potency (IC50), MRC-5 bioassay [1]: 500 pM
Potency (IC50), MRC-5 bioassay [2]: 350 pM

B3: murine anti-hIL-1α mAb 6H3.1A4.3E11 (antibody, V domains shown)
VH: QVQLQQPGAELVRPGASVKLSCKASGYTFTTYWMNWVKQRPEQGLEWIGRIDPYDSETLYSQKFKDTAILTVDKSSSTAYMQLSSLTSEDSAVYYCARYGFDYWGQGTTLTVSS
VL: QIVLTQSPALMSASPGEKVTMTCSASSSVNYMYWYQQKPRSSPKPWIYLTSNLASGVPARFSGSGSGTSYSLTISSMEAEDAATYYCQQWNSNPYTFGGGTKLEMKR
IC50, MRC-5 bioassay [2]: 240 pM
IC50, inhibition of IL-8 production by MRC-5 cells [3]: 240 pM

B4: hIL-1a/bDVD3a-Ig (bispecific antibody, human IgG1, kappa)
heavy: not shown
light: DIVMTQSQRFMSTSVGDRVSVTCKASQNVGTNIAWYQQKPGQSPRALIYSASYRYSGVPDRFTGSGSGTDFTLTISNVQSVDLAEYFCQQYTRYPLTFGGGTKLEIKRTVAAPETTVTQSPASLSMAIGEKVTIRCITSTDIDVDMNWYQQKPGEPPKLLISQGNTLRPGVPSRFSSSGSGTDFVFIIENMLSEDVADYYCLQSDNLPLTFGAGTKLELKRTVAAPSVFIFPPSDEQLKSGTASVVCLLNNFYPREAKVQWKVDNALQSGNSQESVTEQDSKDSTYSLSSTLTLSKADYEKHKVYACEVTHQGLSSPVTKSFNRGEC
Potency (IC50), MRC-5 bioassay [2]: 750 pM

B5: murine anti-hIL-1α mAb 18F4.2C8 (antibody, V domains shown)
VH: EVQLQQSGAELVKPGASVKLSCTASGLNIKDTYMHWLKQRPEQGLEWIGRIDPANGNAKYDPRFLGKATITADTSSNTAYLQLSSLTSEDTAVYYCARGDGNFHFDYWGQGTTLTVSS
VL: DIVMTQSQRFMSTSVGDRVSVTCKASQNVGTNIAWYQQKPGQSPRALIYSASYRYSGVPDRFTGSGSGTDFTLTISNVQSVDLAEYFCQQYTRYPLTFGGGTKLEIKR
IC50, MRC-5 bioassay [2]: 330 pM
IC50, inhibition of IL-8 production by MRC-5 cells [3]: 89 pM

B6: chimeric 13F5.G5 Ab (13F5.G5-VH-Cγ1 / 13F5.G5-VL-Cκ) (antibody, V domains shown)
VH: QVQLQQSGAELVRPGSSVKISCKASGYAFSSYWMNWVKQRPGQGLEWIGQIYPGDGDTNYNGKFKGKATLTADKSSSTSYMQLSGLTSEDSAMYFCVRFPTGNDYYAMDYWGQGTSVTVSS
VL: NIVLTQSPASLAVSLGQRATISCRASESVDSYGNSYMHWYQQKPGQPPKLLIYLASNLESGVPARFSGSGSRTDFTLTIDPVEADDAATYYCQQNNEDPFTFGSGTKLEIKR
Potency (IC50), MRC-5 bioassay [4]: 530 pM

B7: hIL-1a/bDVD2-Ig (bispecific antibody, human IgG1, kappa)
heavy: not shown
light: NIVLTQSPASLAVSLGQRATISCRASESVDSYGNSYMHWYQQKPGQPPKLLIYLASNLESGVPARFSGSGSRTDFTLTIDPVEADDAATYYCQQNNEDPFTFGSGTKLEIKRADAAPNIQMTQTTSSLSASLGDRVTISCRASQDISNCLNWYQQKPDGTVKLLIYYTSRLHSGVPSRFSGSGSGTDYSLTISNLEQEDIATYFCQQGKTLPYAFGGGTKLEINRTVAAPSVFIFPPSDEQLKSGTASVVCLLNNFYPREAKVQWKVDNALQSGNSQESVTEQDSKDSTYSLSSTLTLSKADYEKHKVYACEVTHQGLSSPVTKSFNRGEC
Potency (IC50), MRC-5 bioassay [4]: 1600 pM
Potency (IC50), MRC-5 bioassay [5]: 2900 pM
dual-inhibition activity, IL-8 synthesis by MRC-5 cells with both IL-1α and IL-1β present [6]: 1.2 nM
neutralizing activity to hIL-1β relative to DVD1-Ig [6]: 3 fold
dual-inhibition activity, IL-8 synthesis by MRC-5 cells with both IL-1α and IL-1β present [7]: 1.2 nM
neutralizing activity against hIL-1α relative to the chimeric Abs [7]: 3 fold

B8: murine anti-hIL-1α mAb 3D12.E3 (antibody, V domains shown)
VH: QIQLVQSGPELKKPGETVKISCKASGYTFRNYGMNWVKQAPGKDLKRMAWINTYTGESTYADDFKGRFAFSLETSASTAYLQINNLKNEDTATYFCARGIYYYGSSYAMDYWGQGTSVTVSS
VL: NIQMTQTTSSLSASLGDRVTISCRASQDISNCLNWYQQKPDGTVKLLIYYTSRLHSGVPSRFSGSGSGTDYSLTISNLEQEDIATYFCQQGKTLPYAFGGGTKLEINR
Potency (IC50), MRC-5 bioassay [5]: 670 pM
IC50, inhibition of IL-8 production by MRC-5 cells [3]: 670 pM

B9: chimeric 3D12.E3 Ab (3D12.E3-VH-hCγ1 / 3D12.E3-VL-hCk) (antibody, V domains shown)
VH: B8 VH
VL: B8 VL
Potency (IC50), MRC-5 bioassay [5]: 700 pM

B10: hIL-1a/bDVD5b-Ig (bispecific antibody, human IgG1, kappa)
heavy: not shown
light: QIVLTQSPAIMSASPGEKVTITCSASSSVSYMHWFQQKPGASPKLWIYSTSNLASGVPARFSGSGSGTSYSLTVSRMEAEDAATYYCQQRSTYPYTFGGGTKLEIKRTVAAPQIVLTQSPALMSASPGEKVTMTCSASSSVNYMYWYQQKPRSSPKPWIYLTSNLASGVPARFSGSGSGTSYSLTISSMEAEDAATYYCQQWNSNPYTFGGGTKLEMKRTVAAPSVFIFPPSDEQLKSGTASVVCLLNNFYPREAKVQWKVDNALQSGNSQESVTEQDSKDSTYSLSSTLTLSKADYEKHKVYACEVTHQGLSSPVTKSFNRGEC
Potency (IC50), MRC-5 bioassay [1]: 250 pM
Potency (IC50), MRC-5 bioassay [2]: 3300 pM

B11: hIL-1a/bDVD6b-Ig (bispecific antibody, human IgG1, kappa)
heavy: not shown
light: QIVLTQSPAIMSASPGEKVTITCSASSSVSYMHWFQQKPGASPKLWIYSTSNLASGVPARFSGSGSGTSYSLTVSRMEAEDAATYYCQQRSTYPYTFGGGTKLEIKRTVAAPSVFIFPPQIVLTQSPALMSASPGEKVTMTCSASSSVNYMYWYQQKPRSSPKPWIYLTSNLASGVPARFSGSGSGTSYSLTISSMEAEDAATYYCQQWNSNPYTFGGGTKLEMKRTVAAPSVFIFPPSDEQLKSGTASVVCLLNNFYPREAKVQWKVDNALQSGNSQESVTEQDSKDSTYSLSSTLTLSKADYEKHKVYACEVTHQGLSSPVTKSFNRGEC
Potency (IC50), MRC-5 bioassay [1]: 750 pM
Potency (IC50), MRC-5 bioassay [2]: 1000 pM

B12: hIL-1a/bDVD6a-Ig (bispecific antibody, human IgG1, kappa)
heavy: not shown
light: QIVLTQSPALMSASPGEKVTMTCSASSSVNYMYWYQQKPRSSPKPWIYLTSNLASGVPARFSGSGSGTSYSLTISSMEAEDAATYYCQQWNSNPYTFGGGTKLEMKRTVAAPSVFIFPPQIVLTQSPAIMSASPGEKVTITCSASSSVSYMHWFQQKPGASPKLWIYSTSNLASGVPARFSGSGSGTSYSLTVSRMEAEDAATYYCQQRSTYPYTFGGGTKLEIKRTVAAPSVFIFPPSDEQLKSGTASVVCLLNNFYPREAKVQWKVDNALQSGNSQESVTEQDSKDSTYSLSSTLTLSKADYEKHKVYACEVTHQGLSSPVTKSFNRGEC
Potency (IC50), MRC-5 bioassay [1]: 70000 pM
Potency (IC50), MRC-5 bioassay [2]: 2300 pM

B13: hIL-1a/bDVD3b-Ig (bispecific antibody, human IgG1, kappa)
heavy: not shown
light: ETTVTQSPASLSMAIGEKVTIRCITSTDIDVDMNWYQQKPGEPPKLLISQGNTLRPGVPSRFSSSGSGTDFVFIIENMLSEDVADYYCLQSDNLPLTFGAGTKLELKRTVAAPDIVMTQSQRFMSTSVGDRVSVTCKASQNVGTNIAWYQQKPGQSPRALIYSASYRYSGVPDRFTGSGSGTDFTLTISNVQSVDLAEYFCQQYTRYPLTFGGGTKLEIKRTVAAPSVFIFPPSDEQLKSGTASVVCLLNNFYPREAKVQWKVDNALQSGNSQESVTEQDSKDSTYSLSSTLTLSKADYEKHKVYACEVTHQGLSSPVTKSFNRGEC
Potency (IC50), MRC-5 bioassay [2]: 700 pM

B14: murine anti-hIL-1β mAb 1B12.4H4 (antibody, V domains shown)
VH: QVHLKESGPGLVAPSQSLSITCTVSGFSLTDYGVSWIRQPPGKGLEWLGLIWGGGDTYYNSPLKSRLSIRKDNSKSQVFLKMNSLQTDDTAVYYCAKQRTLWGYDLYGMDYWGQGTSVTVSS
VL: ETTVTQSPASLSMAIGEKVTIRCITSTDIDVDMNWYQQKPGEPPKLLISQGNTLRPGVPSRFSSSGSGTDFVFIIENMLSEDVADYYCLQSDNLPLTFGAGTKLELKR
IC50, MRC-5 bioassay [1]: 600 pM
IC50, inhibition of IL-8 production by MRC-5 cells [8]: 530 pM

B15: hIL-1a/bDVD4a-Ig (bispecific antibody, human IgG1, kappa)
heavy: not shown
light: DIVMTQSQRFMSTSVGDRVSVTCKASQNVGTNIAWYQQKPGQSPRALIYSASYRYSGVPDRFTGSGSGTDFTLTISNVQSVDLAEYFCQQYTRYPLTFGGGTKLEIKRTVAAPSVFIFPPETTVTQSPASLSMAIGEKVTIRCITSTDIDVDMNWYQQKPGEPPKLLISQGNTLRPGVPSRFSSSGSGTDFVFIIENMLSEDVADYYCLQSDNLPLTFGAGTKLELKRTVAAPSVFIFPPSDEQLKSGTASVVCLLNNFYPREAKVQWKVDNALQSGNSQESVTEQDSKDSTYSLSSTLTLSKADYEKHKVYACEVTHQGLSSPVTKSFNRGEC
Potency (IC50), MRC-5 bioassay [1]: 10000 pM
Potency (IC50), MRC-5 bioassay [2]: 350 pM
